Columns and labels:
IRAP-His = target: T1, IRAP-His (Rattus norvegicus, UniProt P97629); assay: Biochemical binding test of human MD36 (EIA plate, anti-Penta-His detection); conditions: IRAP-His 1.0 μg/ml and anti-Penta-His antibody both added to human MD36-coated wells
T1 construct: to construct plasmid pET21-IRAP (1–109); made in house
T1 sequence (P97629 1-109): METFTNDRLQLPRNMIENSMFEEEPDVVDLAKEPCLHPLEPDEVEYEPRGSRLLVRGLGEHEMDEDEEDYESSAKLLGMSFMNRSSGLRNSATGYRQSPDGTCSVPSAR
From the text: The C terminal part (partial peptide encoded by the partial base sequence of 2995–3674 from the 5′ end in SEQ ID NO:2) of SEQ ID NO:1 (full-length cDNA of MD36) was used as human MD36. This DNA fragment was inserted into pGEX expression vector (Amersham Pharmacia) to construct expression plasmid pGEX-MD36N4 capable of expressing the human MD36 partial protein in the form fused to GST (glutathione S-transferase) protein (GST-MD36N4 protein) under control of tac promoter. However, the protease recognition site in these junctions was removed by applying PCR. Using pGEX-MD36N4, E. coli BL21 was transformed and the transformants were cultured in LB medium in a conventional manner while inducing expression by IPTG. After culture, the cells collected were disrupted by sonication followed by centrifugation of the cell homogenate. As a result, most of the GST-MD36N4 protein were present in the insoluble fraction. […]
Protein-protein binding test was carried out by the procedure shown below. […] After the wells were again rinsed 3 times with TBS-T, the IRAP-His protein remained in the wells was quantitatively assayed using anti-Penta-His antibody (Qiagen, Inc.). […] IRAP-His (1.0 μg/ml) or anti-Penta-His antibody (diluted to 2000 fold) and both were added to the GST-MD364N-coated or uncoated wells, and after washing with TBS-T, the amount of His-Tag remained in the wells was quantified. […]

IRAP (55–82) = target: T2, IRAP (55–82) (Rattus norvegicus, UniProt P97629); assay: Yeast two-hybrid quantification assay of β-galactosidase activity (CPRG); type: cell-based; conditions: bait IRAP (55–82); prey MD36 cDNA base numbers 2995–3674; S. cerevisiae Y190; CPRG substrate
T2 construct: expressed in transfected cells; host or cells: Saccharomyces cerevisiae Y190
T2 sequence (P97629 55-82 limits assumed): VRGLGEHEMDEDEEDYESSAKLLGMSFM
Method: In order to verify the binding of human MD36 to IRAP quantitatively, the β-galactosidase activity was assayed using CPRG (chlorophenol red-β-D-galactopyranoside) as substrate.
Yeast bearing both bait and prey sought to detect the interactions therebetween was subjected to liquid culture. After the cells were recovered, the cell walls were disrupted by freezing/thawing with liquid nitrogen. After CRPG was added to a suspension of the disrupted cells, absorbance of these samples at 578 nm was measured in terms of the β-galactosidase activity. In the unit of β-galactosidase, the enzyme activity that one yeast cell is capable of hydrolyzing 1 μmol of CPRG into chlorophenol red and D-galactoside was made 1 unit. IRAP (55–82) was used as the bait sequence and as the prey sequence, the sequence (679 bp corresponding to the base numbers 2995–3674 in SEQ ID NO:3) directly isolated from human MD36 cDNA sequence by the yeast two-hybrid method was used. In addition, vector pGBT9 that expresses bait sequence-unfused GAL4-BD was used as a negative control. Using plasmids having these sequences, S. Cerevisiae Y190 was transformed and the β-galactosidase activity of the reconstructed yeast transformants was assayed. […] On the other hand, the binding activity was scarcely noted with the protein bearing GAL4-BD alone but no bait sequence (FIG. 19). […]

B1: MD36: human skeletal muscle-derived IRAP binding protein, SEQ ID NO:1; C-terminal part (bases 2995–3674) used in binding tests (protein, listed as Homo sapiens)
chain: MAGGEDRGDGEPVSVVTVRVQYLEDTDPFACANFPEPRRAPTCSLDGALPLGAQIPAVHRLLGAPLKLEDCALQVSPSGYYLDTELSLEEQREMLEGFYEEISKGRKPTLILRTQLSVRVNAILEKLYSSSGPELRRSLFSLKQIFQEDKDLVPEFVHSEGLSCLIRVGAAADHNYQSYILRALGQLMLFVDGMLGVVAHSDTIQWLYTLCASLSRLVVKTALKLLLVFVEYSENNAPLFIRAVNSVASTTGAPPWANLVSILEEKNGADPELLVYTVTLINKTLAALPDQDSFYDVTDALEQQGMEALVQRHLGTAGTDVDLRTQLVLYENALKLEDGDIEEAPGAGGRRERRKPSSEEGKRSRRSLEGGGCPARAPEPGPTGPASPVGPTSSTGPALLTGPASSPVGPPSGLQASVNLFPTISVAPSADTSSERSIYKLHQTASVWAPESPPVPQSPPGQARLEARFLENVAAAETEKQVALAQGRAETLAGAMPNEAGGHPDARQLWDSPETAPAARTPQSPAPCVLLRAQRSLAPEPKEPLIPASPKAEPIWELPTRAPRLSIGDLDFSDLGEDEDQDMLNVESVEAGKDIPAPSPPLPLLSGVPPPPPLPPPPPIKGPFPPPPPLPLAAPLPHSVPDSSALPTKRKTVKLFWRELKLAGGHGVSASRFGPCATLWASLDPVSVDTARLEHLFESRAKEVLPSKKAGEGRRTMTTVLDPKRSNAINIGLTTLPPVHVIKAALLNFDEFAVSKDGIEKLLTMMPTEEERQKIEEAQLANPDIPLGPAENFLMTLASIGGLAARLQLWAFKLDYDSMEREIAEPLFDLKVGMEQLVQNATFRCILATLLAVGNFLNGSQSSGFELSYLEKVSEVKDTVRRQSLLHHLCSLVLQTRPESSDLYSEIPALTRCAKVDFEQLTENLGQLERRSRAAEESLRSLAKHELAPALRARLTHFLDQCARRVAMLRIVHRRVCNRFHAFLLYLGYTPQAAREVRIMQFCHTLREFALEYRTCRERVLQQQQKQATYRERNKTRGRMITETEKFSGVAGEAPSNPSVPVAVSSGPGRGDADSHASMKSLLTSRPEDTTHNRRSRGMVQSSSPIMPTVGPSTASPEEPPGSSLPSDTSDEIMDLLVQSVTKSSPRALAARERKRSRGNRKSLRRTLKSGLGDDLVQALGLSKGPGLEV
amount of His-Tag remained in the wells (IRAP-His): markedly detected
β-galactosidase activity (IRAP (55–82)): about 70 units
